Reference: article PMC10333338, “Mechanism of ATP hydrolysis dependent rotation of bacterial ATP synthase” (Nature Communications, 2023)

Molecular target: T1, α subunit of the F1 domain of FoF1 ATP synthase from Geobacillus stearothermophilus (Bacillus PS3 sp.) (G. stearothermophilus (Bacillus PS3 sp.), UniProt P09219 1-502)
T1 construct: ATP synthase subunit alpha, Bacillus PS3 sp; (G. stearothermophilus); subunit of the ΔεCT-FoF1 complex; Three copies stand in the F1 domain (α3β3γ); The complex was purified on Ni-NTA; also called αE; αT
T1 sequence (P09219 whole entry, the tested form may be a part): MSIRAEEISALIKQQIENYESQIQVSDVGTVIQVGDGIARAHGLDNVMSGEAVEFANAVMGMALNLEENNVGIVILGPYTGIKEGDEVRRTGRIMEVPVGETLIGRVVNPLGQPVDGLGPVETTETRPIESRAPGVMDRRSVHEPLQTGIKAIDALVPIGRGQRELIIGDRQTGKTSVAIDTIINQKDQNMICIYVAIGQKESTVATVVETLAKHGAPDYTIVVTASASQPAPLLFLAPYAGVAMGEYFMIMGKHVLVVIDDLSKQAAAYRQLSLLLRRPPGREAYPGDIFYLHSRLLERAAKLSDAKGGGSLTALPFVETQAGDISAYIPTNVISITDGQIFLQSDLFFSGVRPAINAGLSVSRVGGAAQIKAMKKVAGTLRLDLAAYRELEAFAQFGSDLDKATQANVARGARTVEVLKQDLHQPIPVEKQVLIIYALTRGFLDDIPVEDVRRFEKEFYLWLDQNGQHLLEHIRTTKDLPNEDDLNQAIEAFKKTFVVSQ
Assay: cryo-EM structure; purified ΔεCT-FoF1 in DDM, 9 µM enzyme; 26 mM ATP-Mg, 20 s at 25 °C (high [ATP], nucleotide-depleted enzyme) or 25 µM ATP with pyruvate kinase and PEP, 60 s at 25 °C (low [ATP]); flash frozen; focused refinement on the F1 domain
Conditions: both partners purified

binding result: binds
B1: γ subunit of the F1 domain of FoF1 ATP synthase from Geobacillus stearothermophilus (Bacillus PS3 sp.) (natural protein, G. stearothermophilus (Bacillus PS3 sp.), UniProt P09222 5-286, looked up)
chain: ASLRDIKTRINATKKTSQITKAMEMVLTSKLNRAEKREIVRPYMEKIQEVVANVALAARASHPMLVSRPVKKTGYLVITSDRGLAGAYNSNVLRLVYQTIQKRHASPDEYAIIVIGRVGLSFFRKRNMPVILDITRLPDQPSFADIKEIARKTVGLFADGTFDELYMYYNHYVSAIQQEVTERKLLPLTDLAENKQRTVYEFEPSQEEILDVLLPQYAESLIYGALLDAKASEHAARMTAMKNATDNANELIRTLTLSYNRARQAAITQEITEIVAGANALQ
notes: ATP synthase gamma chain, Bacillus PS3 sp; (G. stearothermophilus); subunit of the ΔεCT-FoF1 complex; One copy in the centre of α3β3; also called γ-stalk; central γ subunit
